Consider 16 molecules from patent US20180346555A1 (Regeneron, published 2018).

The target in experiment [1] is T1, natural Bet v 1 (Betula verrucosa (Betula pendula), UniProt P15494 2-160).
T1 construct: Bought natural protein; also called nBet v 1
T1 chain: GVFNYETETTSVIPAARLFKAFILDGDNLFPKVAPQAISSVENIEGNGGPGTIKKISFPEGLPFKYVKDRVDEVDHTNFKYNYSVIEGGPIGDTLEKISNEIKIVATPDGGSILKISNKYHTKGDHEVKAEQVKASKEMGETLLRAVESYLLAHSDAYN
Put plainly: SPR Biacore 4000, mAb captured on anti-human Fc, 25C.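 Also: purified anti-Bet v 1 mAbs probed with natural Bet v 1 in HBS-ET buffer (HEPES, NaCl, EDTA, Tween-20) at pH 7.4.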 Background: SPR reads the build-up and loss of mass on a sensor chip optically.

In experiment [2] the target is T1, natural Bet v 1. The experiment is described as follows: SPR Biacore 4000, mAb captured on anti-human Fc, 37C.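 Also: kinetic rate constants from SPR sensorgrams fitted to a 1:1 model with mass transport limitation, HBS-ET buffer pH 7.4, KD and t½ derived from the rate constants.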
The target of experiment [3] is T2, Hazel (Cor A 1, MyBiosource, Cat# MBS5304600) (Hazel, UniProt Q08407 2-160, limits assumed).
T2 construct: Bought reagent
T2 sequence (looked up): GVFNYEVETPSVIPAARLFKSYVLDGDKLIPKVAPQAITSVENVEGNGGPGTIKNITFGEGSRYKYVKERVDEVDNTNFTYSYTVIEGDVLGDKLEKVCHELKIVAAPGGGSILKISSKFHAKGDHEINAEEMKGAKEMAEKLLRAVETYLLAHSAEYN
Put plainly: SPR Biacore 4000, mAb captured by anti-human Fc, 25 C.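 Also: allergen analyte binding to captured, purified anti-Bet v 1 monoclonal antibodies, SPR in HEPES-buffered saline running buffer with EDTA and Tween-20 at pH 7.4.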

Broadly, the Kd is the concentration at which binding is half-saturated. As usually defined, the koff is the rate constant with which the complex falls apart. For orientation: kon means a measure of how fast the partners come together. Broadly, the t½ is how long it takes for the measured level to halve. Low values mean rapid decline, high ones slow decline.

B1: H4H17067P2 (antibody, human IgG4, V domains shown)
VH: EVQLVQSGAEVKKPGESLKISCSGSGYRFTNYWIAWVRQMPGKGLEWMGLIHPDDSDIRYSPSFQGQVTFSVDKSINTAYLQWSSLKASDTAMYYCTRQDGILWSHNAWFDPWGQGTLVTVSS
VL: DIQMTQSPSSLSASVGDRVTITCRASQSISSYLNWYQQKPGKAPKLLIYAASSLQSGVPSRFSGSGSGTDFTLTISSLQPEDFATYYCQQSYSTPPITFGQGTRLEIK
Regarding B1, in experiment [1], the “100 nM natural Bet v 1 Bound (RU)” value came out at 58 RU; the affinity, expressed as Kd, was 3.56 nM; the koff turned out to be 0.000402 s⁻¹; the kon was 113000 M⁻¹ s⁻¹. Moreover, in experiment [1], the t½ turned out to be 29 min. For the same molecule, in experiment [2], the “100 nM natural Bet v 1 Bound (RU)” value turned out to be 80 RU, binding was put at a Kd of 5.48 nM, the dissociation rate constant (koff) stood at 0.00147 s⁻¹ and the kon was determined as 268000 M⁻¹ s⁻¹. For the same molecule, in experiment [2], the t½ was determined as 7.9 min.

B2: H4H17028P (antibody, human IgG4, V domains shown)
VH: QVQLVESGGGVVQPGRSLRLSCAASGFTFSRYAIHWVRQAPGKGLEWVAVISYDGDDKYYGDSVKGRFTISRDNSKTMVYLHMNSLRTEDTAVYYCAKDGYSLYGKDYFDYWGQGTLVTVSS
VL: EIVLTQSPGTLPLSPGERATLSCRASQSITNSYLAWYQQKPDQAPRLLIYGASSRATGIPDRFSGSESGTDFTLTISRLEPEDFAVYYCQQYVRSPWTFGQGTKVEIK
Turning to B2, in experiment [1], the “100 nM natural Bet v 1 Bound (RU)” value worked out at 63 RU, the dissociation constant Kd came to 3.79 nM, the koff stood at 0.00107 s⁻¹ and the kon was found to be 281000 M⁻¹ s⁻¹. Further, the t½ in experiment [1] is 11 min. In addition, in experiment [2], the “100 nM natural Bet v 1 Bound (RU)” value is 71 RU, the Kd worked out at 7.77 nM, the dissociation rate constant (koff) turned out to be 0.0029 s⁻¹ and the kon was found to be 373000 M⁻¹ s⁻¹. For the same molecule, the t½ in experiment [2] is 3.9 min.

B3: H4H16971P (antibody, human IgG4, V domains shown)
VH: QVQLVESGGGVVQPGRSLRLSCAASGFTFSSYGLHWVRQAPGKGLEWVAVISDDGSYKFYADSMKGRFTISRDNSKNTLYLQMNSLRAEDTAVYYCAKDRGRSGWYYFDYWGQGTLVTVSS
VL: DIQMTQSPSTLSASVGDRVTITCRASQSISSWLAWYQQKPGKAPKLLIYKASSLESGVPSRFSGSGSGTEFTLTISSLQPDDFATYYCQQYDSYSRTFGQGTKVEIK
notes: Fully human antibody with human IgG4 Fc (H4H prefix)
For the molecule B3, in experiment [3], the “100 nM Analyte Bound (RU)” value turned out to be 0 RU and the binding result is listed as “no binding (tested: 100 nM)”.

B4: H4H16979P (antibody, human IgG4, V domains shown)
VH: QVQLVQSGAEVKKPGASVKVSCKASGYTFIAYYLHWVRQAPGQGLEWMGLLNPYTGGSYYTQKFQGRVTMTRDTSIDTAYMELNSLRSDDTAIYYCARDKRSYYIPYAFEIWGQGTMVTVSS
VL: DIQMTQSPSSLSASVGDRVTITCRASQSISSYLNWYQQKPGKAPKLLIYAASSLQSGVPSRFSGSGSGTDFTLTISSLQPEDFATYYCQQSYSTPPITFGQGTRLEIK
notes: as for B3
Consider B4, for which, in experiment [3], the “100 nM Analyte Bound (RU)” value worked out at 0 RU and the binding result is given as “no binding (tested: 100 nM)”.

B5: H4H17045P2 (antibody, human IgG4, V domains shown)
VH: EVQLVESGGGLVQPGVSLRLSCVASGFTFSNYDITWIRQIPGKGLEWVSRISGSGGSTYFADSVKGRFIISRDNSKNTVYMQMNSLRAEDSAVYYCARRDSVLFSMNSWLDPWGQGTLVTVSS
VL: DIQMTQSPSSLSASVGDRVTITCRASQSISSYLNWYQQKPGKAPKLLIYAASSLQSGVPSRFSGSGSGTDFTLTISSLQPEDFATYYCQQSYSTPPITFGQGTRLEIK
In the case of B5, in experiment [1], the “100 nM natural Bet v 1 Bound (RU)” value is 69 RU, the Kd was determined as 1.22 nM, the off-rate (koff) worked out at 0.000149 s⁻¹ and the kon was 122000 M⁻¹ s⁻¹. Moreover, the t½ in experiment [1] was determined as 78 min. For the same molecule, in experiment [2], the “100 nM natural Bet v 1 Bound (RU)” value stood at 90 RU, binding was put at a Kd of 1.86 nM, the off-rate constant (koff) was found to be 0.000441 s⁻¹ and the on-rate (kon) was found to be 237000 M⁻¹ s⁻¹. This molecule also came in with a t½ in experiment [2] of 26 min.

B6: H4H16943P (antibody, human IgG4, V domains shown)
VH: EVQLVESGGGLVQPGGSLRLSCTASGFMSSMYWMSWVRQAPGKGLEWVSNIKQDGTEKNYVESVKGRFTISRDNAKNSLYLQINSLRGEDTAVYYCARDLYSSSSGYYYYGLDVWGQGTTVTVSS
VL: DIVMTQSPLSLPVTPGEPASISCRSSQSLLHSNKYNYLDWYLQKPGQSPQLLIYLSSNRASGVPDRFSGSGSGTEFTLKISRVEAEDVGIYYCMQALHTPLTFGGGTKVEIK
notes: as for B3
Turning to B6, in experiment [3], the “100 nM Analyte Bound (RU)” value was found to be 0 RU and the binding result is on record as “no binding (tested: 100 nM)”.

B7: H4H16946P (antibody, human IgG4, V domains shown)
VH: EVQLVESGGGLVQPGGSLRLSCVASGFTFSNYDMNWVRQAPGEGLEWISYISYSDHNIYYIDSVKGRFTISRDNAKNSLYLQMNSLRAEDTAIYYCAREALASSSFDYWGQGTLVTVSS
VL: EIVMTQSPATLSVSPGERVTLSCRASQSVSGNLAWYQQKPGQAPRLLIYSASTGATGVPARFSGSGSGTEFTLTISSLQSEDFALYYCQQYNKWPRTIGQGTKVEIK
notes: as for B3
B7: the “100 nM Analyte Bound (RU)” value in experiment [3] is -1 RU.

B8: H4H17001P (antibody, human IgG4, V domains shown)
VH: QVQLVESGGGLVKPGGSLRLSCAASGFTFSDYYMNWIRQAPGKGLEWISLISSSGSAIYYSDSVKGRFTISRDNARKSLYLQVNSLRAEDTAVYYCARDRGEWALGAYYYGLDVWGQGTTVTVSS
VL: DIVMTQSPLSLPVTPGEPASISCRSSQSLLHSDGYNYLDWYLQKSGQSPQLLIYLGSNRASGVPDRFSGSGSGTDFTLKISRMEAEDVGVYYCMQALQTPYTFGQGTKLEIK
notes: as for B3
Turning to B8, in experiment [3], the “100 nM Analyte Bound (RU)” value turned out to be 0 RU and the binding result is listed as “no binding (tested: 100 nM)”.

B9: H4H16987P (antibody, human IgG4 S228P, kappa, V domains shown)
VH: EVQLVESGGGLVQPGGSLRLSCAASGFTVSSNSMSWVRQAPGEGLEWVSVIFSGGITYYSDSVKGRFTISRHNSKNTLYLQMNSLRTEDTAVYYCARHSNWNFDAFDIWGQGTMVTVSS
VL: DIQMTQSPSSLSASVGDRVTITCRASQSFDTYLNWYQQKPGKAPNLLIYATSSLQSGVPSRFSGSGSGTDFTLTISSLQPEDFGTYYCQQSYSIPYTFGQGTKLEIKR
notes: human IgG4 Fc; also called MAB4
B9: in experiment [3], the “100 nM Analyte Bound (RU)” value was 0 RU and the binding result was “no binding (tested: 100 nM)”.

B10: H4H16960P (antibody, human IgG4, V domains shown)
VH: QLQLQESGPGLVRPSETLSLTCTVSGGSISSSNYWWGWIRQPPGKGLEWIGSIYYSGITYYNPSLKSRVTISADTSKDQFSLKLRSVTAADTAVYYCAKLEWLRLDFWGQGTTVTVSS
VL: DIQMTQSPSSVSASVGDRVTITCRASQGISSWLVWYQQKPGKVPKLLIYAASSLQSGVPLRFSGSGSGTDFTLTISSLQPEDFATYYCQQAKSFPLTFGQGTRLEIK
notes: as for B3
Consider B10, for which, in experiment [3], the “100 nM Analyte Bound (RU)” value was 0 RU and the binding result was “no binding (tested: 100 nM)”.

B11: H4H16967P (antibody, human IgG4, V domains shown)
VH: QVQLVESGGGVVQPGRSLRLSCAASGFTFSSYGMHWFRQAPGKGLEWVGVIWSDGSDKKYADSVKGRFTISRDNSKNTLYLLMNSLRDDDTAVYHCAREGGFLYSSSSHFDYWGQGTLVTVSS
VL: AIQMTQSPSSLSASVGDRVTITCRTSQGIRNDLGWYQQKPGKAPKLLIFAASSLQSGVPSRFSGSGSGTDFTLTISSLQPEDFAIYYCLQDYKYPFTFGGGTKVEIK
notes: as for B3
For B11, in experiment [3], the “100 nM Analyte Bound (RU)” value was found to be 0 RU and the binding result was “no binding (tested: 100 nM)”.

B12: H4H16991P (antibody, human IgG4, V domains shown)
VH: QVQLVQSGAEVRKPGASVKVSCKASGYTFTGYYLHWVRQAPGQGLEWMGLINPNTGGTNFAQKFQGRVTMTRDSSISAAYMELSRLRSDDTAVYYCARQHWNRYFDNWGQGTLVTVSS
VL: DIQMTQSPSTLSASVGDRVTITCRASQSVGNWLAWYQQKPGKAPKLLIQEASSIESGVPSRFSGSGSGTEFTLIVSSLQPDDFATYYCQQYNSYSWTFGHGTKVEIK
notes: as for B3
On to B12, for which, in experiment [3], the “100 nM Analyte Bound (RU)” value amounted to 0 RU and the binding result is given as “no binding (tested: 100 nM)”.

B13: H4H17033P (antibody, human IgG4, V domains shown)
VH: QVQLVQSGAEVKKPGASVKVSCKASGYTFAAHYMHWVRQAPGQGLEWMGWINTYTGGTNYGQKFQGRVTMTRDTSITTAYMELSRLRSDDTAVYYCARDRRNWNFVFEYWGQGTLVTVSS
VL: DIQMTQSPSSLSASVGDRVTISCRASQNIKNYLNWYQQKPGKAPKLLIYEASNLQSGAPSRFSGSGSGTDFTLTISSLEPEDFATYYCQQSFSIPWTFGQGTKVEIK
As to B13, in experiment [1], the “100 nM natural Bet v 1 Bound (RU)” value came to 61 RU, the dissociation constant (Kd) worked out at 1.19 nM, the koff was found to be 0.000469 s⁻¹ and the on-rate constant (kon) is 394000 M⁻¹ s⁻¹. The t½ in experiment [1] stood at 25 min. Besides, in experiment [2], the “100 nM natural Bet v 1 Bound (RU)” value is 74 RU, binding was put at a Kd of 1.9 nM, the dissociation rate constant (koff) worked out at 0.00119 s⁻¹ and the kon was determined as 627000 M⁻¹ s⁻¹. This molecule also yielded a t½ in experiment [2] of 10 min.

B14: H4H17015P (antibody, human IgG4, V domains shown)
VH: QVQLQESGPGLVKPSQTLSLTCTVSGGSISSADHYWSWIRQQPGKGLEWIGYISYRGTTYYNPTLESRVSISVDTFKNQFSLMLHSVTVADTAVYYCAKVLQGLVRFRDYGFDVWGQGTTVTVSS
VL: DIQLTQSPPFLSASVGDRVTITCWASQDISSYLAWYQQNPGKSPKLLIYDAFTLHTGVPSRFSGSGSGTEFTLTISSLQPEDFATFYCQHLYSFPFTFGPGTKVDIK
notes: as for B3
Regarding B14, in experiment [3], the “100 nM Analyte Bound (RU)” value turned out to be 1 RU and the binding result is “no binding (tested: 100 nM)”.

B15: H4H16992P (antibody, human IgG4 S228P, kappa, V domains shown)
VH: QVQLQESGPGLVKPSETLSLTCSVSGGSITNYFWTWIRQSPGKGLEWIGYIYYSGGTNYNPSLKSRVTISIDTSKNQFSLNMNSVTAADTAVYYCAGSYYYGVDVWGQGTTVTVSS
VL: EIVLTQSPATLSLSPGERATLSCRASQSIKSFLAWYRQKPGQAPRLLIYDASNRPTGIPARFSGSGSGTDFTLTINSLESEDFAVYFCQQRNNWPFTFGPGTKVDIKR
notes: human IgG4 Fc; also called REGN5713; MAB1
Turning to B15, in experiment [3], the “100 nM Analyte Bound (RU)” value turned out to be 0 RU and the binding result is on record as “no binding (tested: 100 nM)”.

B16: H4H16950P (antibody, human IgG4, V domains shown)
VH: QVQLVQSGAEVKKPGASVKVSCKTSGYTFTNYGITWVRQAPGQGLEWMGWISAYNGNTNYAQNVQGRVTMTTDTSTSTAYMEVRSLRSDDTAVYYCARRSSMLHFQHWGQGTLVTVSS
VL: DIVMTQSPDSLAVSLGERATINCKSSQHVLYDSSNENYLAWFQQKPGQPPKLLIYWASTRESGVPDRFSGSGSGTDFTLTISSLQAEDVAVYYCQQYSSAPYTFGQGTKLEIK
notes: as for B3
As to B16, in experiment [3], the “100 nM Analyte Bound (RU)” value turned out to be 0 RU and the binding result is on record as “no binding (tested: 100 nM)”.
